Experimental data from patent US20230203146A1 (Boehringer Ingelheim, published 2023).
Where two headings read alike, the source gives them in different places.

Tests used:
[1] = biological target: T1, FLAG-tagged cynomolgus Ang2 (cynomolgus, UniProt O15123 19-496 (human entry), limits assumed); assay: competition ELISA: FLAG-cAng2 binding to coated cTie2-Fc
T1 construct: N-terminally FLAG-tagged, conditioned medium of HEK293T cells; also called cAng2; FLAG-cAng2
T1 chain: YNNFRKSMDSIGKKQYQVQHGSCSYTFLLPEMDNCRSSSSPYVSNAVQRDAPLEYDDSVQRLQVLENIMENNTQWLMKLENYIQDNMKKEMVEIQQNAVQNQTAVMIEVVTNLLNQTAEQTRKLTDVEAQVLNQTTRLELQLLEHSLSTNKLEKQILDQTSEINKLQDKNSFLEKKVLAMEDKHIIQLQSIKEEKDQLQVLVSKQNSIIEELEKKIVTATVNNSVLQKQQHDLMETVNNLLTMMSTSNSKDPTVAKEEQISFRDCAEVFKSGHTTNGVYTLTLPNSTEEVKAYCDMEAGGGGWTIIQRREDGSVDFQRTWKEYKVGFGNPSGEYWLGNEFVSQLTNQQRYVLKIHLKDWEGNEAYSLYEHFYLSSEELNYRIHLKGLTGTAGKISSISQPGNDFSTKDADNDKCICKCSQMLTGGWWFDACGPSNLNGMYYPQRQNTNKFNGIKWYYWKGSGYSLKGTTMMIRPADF
Description: (§1) In brief, 2 μg/mL of recombinant mouse Tie2-Fc or cyno Tie2-Fc is coated overnight at 4° C. in a 96-well MaxiSorp plate (Nunc, Wiesbaden, Germany). Coated wells are blocked with a 1% casein solution.

FLAG-tagged mouse Ang2 [2] = biological target: T2, FLAG-tagged mouse Ang2 (mouse, UniProt O35608 19-496); assay: competition ELISA: FLAG-mAng2 binding to coated mTie2-Fc
T2 construct: N-terminally FLAG-tagged, conditioned medium of HEK293T cells; also called mAng2; FLAG-mAng2
T2 sequence: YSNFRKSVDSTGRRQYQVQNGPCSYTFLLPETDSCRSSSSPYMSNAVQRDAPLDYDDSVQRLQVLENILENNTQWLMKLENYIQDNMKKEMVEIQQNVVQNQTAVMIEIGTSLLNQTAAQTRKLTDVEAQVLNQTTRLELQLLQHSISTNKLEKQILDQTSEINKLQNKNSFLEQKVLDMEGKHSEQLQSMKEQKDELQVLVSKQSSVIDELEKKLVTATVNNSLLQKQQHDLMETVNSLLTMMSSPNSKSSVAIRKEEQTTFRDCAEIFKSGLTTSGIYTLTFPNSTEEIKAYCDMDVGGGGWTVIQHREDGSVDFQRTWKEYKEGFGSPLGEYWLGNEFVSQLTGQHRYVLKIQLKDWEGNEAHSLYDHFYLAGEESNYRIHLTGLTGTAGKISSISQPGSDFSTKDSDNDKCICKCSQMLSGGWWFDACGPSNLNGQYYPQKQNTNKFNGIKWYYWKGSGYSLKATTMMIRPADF
Description: as §1

FLAG-tagged mouse Ang2 [3] = biological target: T2, FLAG-tagged mouse Ang2; assay: as above; remark: listed apart in the source
Description: as §1

[4] = biological target: T1, FLAG-tagged cynomolgus Ang2; assay: competition ELISA: FLAG-cAng2 binding to coated cTie2-Fc
Description: as §1

[5] = biological target: T1, FLAG-tagged cynomolgus Ang2; assay: as above
Description: as §1

FLAG-tagged mouse Ang2 [6] = biological target: T2, FLAG-tagged mouse Ang2; assay: competition ELISA: FLAG-mAng2 binding to coated mTie2-Fc; remark: listed apart in the source
Description: as §1

[7] = biological target: T1, FLAG-tagged cynomolgus Ang2; assay: competition ELISA: FLAG-cAng2 binding to coated cTie2-Fc

Binder | IC50 [1] | IC50 (FLAG-tagged mouse Ang2 [2]) | IC50 (FLAG-tagged mouse Ang2 [3]) | IC50 [4] | IC50 [5] | IC50 (FLAG-tagged mouse Ang2 [6]) | IC50 [7]
VHH 28D10 (VHH, not shown: small tags and cut ends, Parental llama VHH; also called 028D10) VHH: EVQLVESGGGLVQAGGSLRLSCAASGFTLDDYAIGWFRQAPGKEREGVSCIRDSDGSTYYADSVKGRFTISSDNDKNTVYLQMNSLKPEDTAVYYCAAVPAGRLRFGEQWYPLYEYDAWGQGTQVTVSS | 2.1 nM | 5.7 nM | 5.7 nM | 2.1 nM |  |  | 
VHH 00027 (VHH, not shown: small tags and cut ends, Variant of 28D10 carrying C50S/S53N and Q108L) VHH: EVQLVESGGGLVQAGGSLRLSCAASGFTLDDYAIGWFRQAPGKEREGVSSIRDNDGSTYYADSVKGRFTISSDNDKNTVYLQMNSLKPEDTAVYYCAAVPAGRLRFGEQWYPLYEYDAWGQGTLVTVSS |  | 1.98 nM | 2 nM | 0.7 nM | 0.728 nM | 1.98 nM | 0.728 nM
VHH 00042 (VHH, not shown: small tags and cut ends) VHH: EVQLVESGGGLVQPGGSLRLSCAASGFTLDDYAIGWFRQAPGKEREGVSSIRDNDGSTYYADSVKGRFTISSDNSKNTVYLQMNSLRPEDTAVYYCAAVPAGRLRFGEQWYPLYEYDAWGQGTLVTVSS |  | 1.91 nM | 1.9 nM | 0.8 nM |  |  | 0.753 nM
VHH 00908 (VHH, not shown: small tags and cut ends) VHH: EVQLVESGGGLVQPGGSLRLSCAASGITLDDYAIGWFRQAPGKEREGVSSIRDNGGSTYYADSVKGRFTISSDNSKNTVYLQMNSLRPEDTAVYYCAAVPAGRLRYGEQWYPIYEYDAWGQGTLVTVSS |  | 0.085 nM |  |  | 0.079 nM | 0.085 nM | 0.079 nM
